Laboratory results as given in patent US20240018240A1 (Hoffmann-La Roche, published 2024).
Residue numbers refer to the chain shown, from its start.

Legend:
[1] = target: human PLAP (ALPP) expressed on CHO-K1 cells (human, UniProt P05187 23-506); experiment: cell-based or functional assay
[2] = target: human ALPG (ALPPL2) expressed on CHO-K1 cells (human, UniProt P10696 20-503); experiment: cell-based or functional assay
[3] = target: T1, Human CD3ε stalk-Fc(knob)-Avi/CD3δ stalk-Fc(hole) (human); experiment: SPR (Biacore T200, 25°C); TCB captured by anti-PG antibody on CM5 chip, 300 nM human CD3ε/δ injected; relative active concentration
T1 construct: Heterodimer of CD3 delta and CD3 epsilon ectodomains fused to a human Fc domain with knob-into-hole modifications and C-terminal Avi-tag; also called human CD3ε/δ; CD3ε/δ
Description: SPR experiments were performed on a Biacore T200 instrument (GE Healthcare) at 25° C. with HBS-P+(10 mM HEPES, 150 mM NaCl pH 7.4, 0.05% Surfactant P20) as running and dilution buffer. Anti-PG antibody (see Example 3) was immobilized by amine coupling (using amine coupling kit, Cytiva #BR100050) at a density of >6000 RU on a CM5 Chip (Sensor Chip CM5, Cytiva #29104988). The 10 nM solutions of TCB molecule samples in HBS-P+ were captured for 30 sec at a flow rate 10 μl/min. Then a 300 nM solution of human CD3ε/δ (see Example 3, SEQ ID NOs 24 and 25) was injected for 150 sec association time and 120 sec dissociation time at a flow rate of 10 μl/min. The regeneration of the surface followed by a 35 sec regeneration step with a 20 mM NaOH solution. The data were analyzed with the Biacore T200 Evaluation and Excel software. For the calculation of relative active concentration (RAC) the binding report point (BRP) was used (the BRP is a standard readout point in SPR, maximum response (unit/value) of interaction between antigen and antibody).

[4] = target: T2, Human PLAP (soluble, as injected in SPR) (human, UniProt P05187 23-506); experiment: SPR RAC assay (Biacore T200, 25°C); TCB captured by anti-PG antibody on CM3 chip, 100 nM human PLAP injected
T2 construct: also called PLAP target
Description: (§1) SPR experiments were performed on a Biacore T200 instrument (GE Healthcare). For the immobilization. HBS-N pH 7.4 was used as a running buffer (Cytiva #BR100670). Anti-PG antibody (see Example 3) was immobilized by amine coupling (using amine coupling kit, Cytiva #BR100050) at a density of >6000 RU on a CM3 Chip (Cytiva #29104990). The anti-PG antibody stock solution was diluted to a concentration of 25 μg/mL in a 10 mM sodium acetate buffer of pH 5.0 (Cytiva #BR100351). After the immobilization the analysis was performed at 25° C., and using PBS-P+ (Cytiva #28995084) as a running and a dilution buffer. The 5 nM solutions of TCB molecule samples in PBS-P+ were captured for 30 sec at a flow rate 5 μl/min. Then a 100 nM solution of human PLAP was injected for 90 sec association time and 30 sec dissociation time at a flow rate of 8 μl/min. Thereafter, a 200 nM solution of human CD3ε/δ (see Example 3, SEQ ID NOs 24 and 25) was injected for 90 sec association time and 30 sec dissociation time at a flow rate of 8 μl/min. The regeneration of the surface followed by two 60 sec regeneration steps with a 10 mM NaOH solution. The data were analyzed with the Biacore T200 Evaluation and Excel software. For the calculation of relative active concentration (RAC) the binding report point (BRP) was used. To calculate the RAC, the target and antibody concentrations were referenced to the unstressed sample (−80° C.) as 100% comparison. For the normalization of the protein concentration, reference was made to anti-PG antibody capturing (RAC values).

[5] = target: T1, Human CD3ε stalk-Fc(knob)-Avi/CD3δ …; experiment: SPR single cycle kinetics (Biacore T200, 25°C); TCB captured by anti-PG antibody on CM3 chip, human CD3ε/δ as analyte
Description: (§2) The binding kinetics of the PLAP TCB molecules generated in Example 17 were characterized by the single cycle kinetic (SSK) assay. For this assay, again the SPR Biacore T200 was used. The immobilization was performed at 25° C. with HBS-N pH 7.4 as a running buffer (Cytiva #BR100670). The anti-PG antibody (see Example 3) was immobilized by amine coupling (using amine coupling kit, Cytiva #BR100050) at a density of >5000 RU on a CM3 Chip (Cytiva #29104990). The anti-PG antibody stock solution was diluted to a concentration of 25 μg/mL in a 10 mM sodium acetate buffer of pH 5.0 (Cytiva #BR100351). After the immobilization the analysis was performed at 25° C., and PBS-P+(Cytiva #28995084) was used as a running and a dilution buffer. The 3 nM solutions of TCB molecule samples in PBS-P+ were captured with anti-PG antibody on a CM3 sensor chip.
(§3) The derived kinetic rate constants and corresponding affinity values (equilibrium dissociation constant KD) are summarized in Table 26 for the CD3 binder and in Table 27 for the PLAP binder. The data were analyzed with the Biacore T200 Evaluation and Excel software.

[6] = target: T2, Human PLAP (soluble, as injected in SPR); experiment: SPR single cycle kinetics (Biacore T200, 25°C); TCB captured by anti-PG antibody on CM3 chip, human PLAP as analyte
Description: as §2, §3

[7] = target: T1, Human CD3ε stalk-Fc(knob)-Avi/CD3δ …; experiment: SPR RAC assay (Biacore T200, 25°C); TCB captured by anti-PG antibody on CM3 chip, 200 nM human CD3ε/δ injected after 100 nM human PLAP
Description: as §1

T2 sequence (P05187 23-506 limits assumed): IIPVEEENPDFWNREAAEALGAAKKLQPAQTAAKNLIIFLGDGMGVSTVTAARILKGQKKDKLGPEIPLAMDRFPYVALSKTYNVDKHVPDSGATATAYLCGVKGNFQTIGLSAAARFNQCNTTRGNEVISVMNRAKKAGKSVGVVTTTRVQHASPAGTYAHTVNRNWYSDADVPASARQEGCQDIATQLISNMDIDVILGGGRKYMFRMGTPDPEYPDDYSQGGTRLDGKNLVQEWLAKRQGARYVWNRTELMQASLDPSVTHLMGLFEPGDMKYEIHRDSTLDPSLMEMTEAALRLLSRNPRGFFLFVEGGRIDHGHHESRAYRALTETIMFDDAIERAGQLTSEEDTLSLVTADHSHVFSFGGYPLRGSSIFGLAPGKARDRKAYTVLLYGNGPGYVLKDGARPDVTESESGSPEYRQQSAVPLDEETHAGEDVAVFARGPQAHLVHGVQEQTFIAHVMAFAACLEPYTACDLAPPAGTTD
human PLAP (ALPP) expressed on CHO-K1 cells, sequence (P05187 23-506): as the sequence (P05187 23-506 limits assumed) above

B1: PLAP H2 CD3 P035.093 TCB (bispecific antibody, human IgG1, kappa, L234A L235A)
heavy 1: not shown
heavy 2: QVQLQESGPGLVKPSETLSLTCTVSGFSLTSYGVSWIRQPAGKGLEWIGVIWEDGSTNYHSALISRVTMSVDTSKNQFSLKLSSVTAADTAVYYCARPHYGSSYVGAMEYWGAGTTVTVSSASTKGPSVFPLAPSSKSTSGGTAALGCLVEDYFPEPVTVSWNSGALTSGVHTFPAVLQSSGLYSLSSVVTVPSSSLGTQTYICNVNHKPSNTKVDEKVEPKSCDKTHTCPPCPAPEAAGGPSVFLFPPKPKDTLMISRTPEVTCVVVDVSHEDPEVKFNWYVDGVEVHNAKTKPREEQYNSTYRVVSVLTVLHQDWLNGKEYKCKVSNKALGAPIEKTISKAKGQPREPQVCTLPPSRDELTKNQVSLSCAVKGFYPSDIAVEWESNGQPENNYKTTPPVLDSDGSFFLVSKLTVDKSRWQQGNVFSCSVMHEALHNHYTQKSLSLSP
light 1: DIQMTQSPSSLSASVGDRVTITCRASENIYSYVAWYQQKPGKAPKLLIYNAKSLASGVPSRFSGSGSGTDFTLTISSLQPEDFATYYCQHHYVSPWTFGGGTKLEIKRTVAAPSVFIFPPSDRKLKSGTASVVCLLNNFYPREAKVQWKVDNALQSGNSQESVTEQDSKDSTYSLSSTLTLSKADYEKHKVYACEVTHQGLSSPVTKSFNRGEC
light 2: EVQLLESGGGLVQPGGSLRLSCAASGFTFSSYAMNWVRQAPGKGLEWVSRIRSKYNNYATYYADSVKGRFTISRDDSKNTLYLQMNSLRAEDTAVYYCVRASNFPASYVSYFAYWGQGTLVTVSSASVAAPSVFIFPPSDEQLKSGTASVVCLLNNFYPREAKVQWKVDNALQSGNSQESVTEQDSKDSTYSLSSTLTLSKADYEKHKVYACEVTHQGLSSPVTKSFNRGEC
notes: also called PLAP H2 TCB; PLAP (H2) TCB
[1]
  EC50 (pM), Jurkat NFAT reporter assay (luminescence, 6 h): 21 pM
[2]
  EC50 (pM), Jurkat NFAT reporter assay (luminescence, 6 h): 22 pM
[3]
  RAC % of CD3 binding, stress A: 100%
  RAC % of CD3 binding, stress B: 96%
  RAC % of CD3 binding, unstressed: 100%

B2: PLAP H3 CD3orig TCB (bispecific antibody, human IgG1, kappa, L234A L235A)
heavy 1: not shown
heavy 2: B1 heavy 2 with A41P, H60N, S61P, A62S, I64K, M69I
light 1: B1 light 1
light 2: B1 light 2 with S31T, A101H, S102G, P105G, A106N, Y111W
[4]
  RAC [%] PLAP binding, stress A: 99%
  RAC [%] PLAP binding, stress B: 100%
  RAC [%] PLAP binding, unstressed: 100%
[5]
  Kd: 6.3 nM
  koff: 0.00167 s⁻¹
  kon: 267000 M⁻¹ s⁻¹
[6]
  Kd: 0.009 nM
  koff: 3.87e-05 s⁻¹
  kon: 4.32e+06 M⁻¹ s⁻¹
[7]
  RAC [%] CD3 binding, stress A: 97%
  RAC [%] CD3 binding, stress B: 82%
  RAC [%] CD3 binding, unstressed: 100%

B3: PLAP H4 CD3 P035.093 TCB (bispecific antibody, human IgG1, kappa, L234A L235A)
heavy 1: not shown
heavy 2: B1 heavy 2 with F27G, L29I, A41P, M69I
light 1: B1 light 1
light 2: B1 light 2
notes: also called PLAP H4 TCB
[1]
  EC50 (pM), Jurkat NFAT reporter assay (luminescence, 6 h): 36 pM
[2]
  EC50 (pM), Jurkat NFAT reporter assay (luminescence, 6 h): 34 pM
[3]
  RAC % of CD3 binding, stress A: 100%
  RAC % of CD3 binding, stress B: 98%
  RAC % of CD3 binding, unstressed: 100%

B4: PLAP H3 CD3opt TCB (bispecific antibody, human IgG1, kappa, L234A L235A)
heavy 1: not shown
heavy 2: B1 heavy 2 with A41P, H60N, S61P, A62S, I64K, M69I
light 1: B1 light 1
light 2: B1 light 2 with T28Q, A101H, S102T, N103T, A106S, F112Y, A113G
notes: 2+1 IgG CrossFab, inverted
[4]
  RAC [%] PLAP binding, stress A: 100%
  RAC [%] PLAP binding, stress B: 101%
  RAC [%] PLAP binding, unstressed: 100%
[5]
  Kd: 2.8 nM
  koff: 0.0136 s⁻¹
  kon: 4.79e+06 M⁻¹ s⁻¹
[6]
  Kd: 0.0097 nM
  koff: 3.99e-05 s⁻¹
  kon: 4.12e+06 M⁻¹ s⁻¹
[7]
  RAC [%] CD3 binding, stress A: 98%
  RAC [%] CD3 binding, stress B: 95%
  RAC [%] CD3 binding, unstressed: 100%

B5: PLAP H2 CD3orig TCB (bispecific antibody, human IgG1, kappa, L234A L235A)
heavy 1: not shown
heavy 2: B1 heavy 2
light 1: B1 light 1
light 2: B1 light 2 with S31T, A101H, S102G, P105G, A106N, Y111W
[4]
  RAC [%] PLAP binding, stress A: 100%
  RAC [%] PLAP binding, stress B: 102%
  RAC [%] PLAP binding, unstressed: 100%
[5]
  Kd: 6.3 nM
  koff: 0.0017 s⁻¹
  kon: 269000 M⁻¹ s⁻¹
[6]
  Kd: 0.0181 nM
  koff: 4.45e-05 s⁻¹
  kon: 2.46e+06 M⁻¹ s⁻¹
[7]
  RAC [%] CD3 binding, stress A: 96%
  RAC [%] CD3 binding, stress B: 81%
  RAC [%] CD3 binding, unstressed: 100%

B6: PLAP H4 CD3orig TCB (bispecific antibody, human IgG1, kappa, L234A L235A)
heavy 1: not shown
heavy 2: B1 heavy 2 with F27G, L29I, A41P, M69I
light 1: B1 light 1
light 2: B1 light 2 with S31T, A101H, S102G, P105G, A106N, Y111W
[4]
  RAC [%] PLAP binding, stress A: 99%
  RAC [%] PLAP binding, stress B: 103%
  RAC [%] PLAP binding, unstressed: 100%
[5]
  Kd: 5.7 nM
  koff: 0.00167 s⁻¹
  kon: 292000 M⁻¹ s⁻¹
[6]
  Kd: 0.0496 nM
  koff: 8.91e-05 s⁻¹
  kon: 1.8e+06 M⁻¹ s⁻¹
[7]
  RAC [%] CD3 binding, stress A: 97%
  RAC [%] CD3 binding, stress B: 78%
  RAC [%] CD3 binding, unstressed: 100%
